From PMC5458255

Biological target: CCR7 receptor (human (endogenous in NKL3 and MDA-MB-231)) (UniProt P32248)
UniProt P32248, sequence (P32248 25-378): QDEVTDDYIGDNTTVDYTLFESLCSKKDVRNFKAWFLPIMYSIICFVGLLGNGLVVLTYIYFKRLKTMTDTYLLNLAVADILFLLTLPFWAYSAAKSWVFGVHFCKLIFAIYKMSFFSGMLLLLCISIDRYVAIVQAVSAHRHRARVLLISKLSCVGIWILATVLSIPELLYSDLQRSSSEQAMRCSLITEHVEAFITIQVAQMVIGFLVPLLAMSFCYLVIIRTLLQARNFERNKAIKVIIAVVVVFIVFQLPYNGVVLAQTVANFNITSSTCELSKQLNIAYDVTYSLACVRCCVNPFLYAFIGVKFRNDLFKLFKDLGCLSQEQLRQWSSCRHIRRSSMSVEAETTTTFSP

adhesion under flow of NKL3 cells to HPLNEC.B3 endothelial cells treated with CCL21, hypoxia; total inhibition by anti-CCR7 neutralizing antibodies: 2.5 fold
Substance: recombinant human CCL21 (from UniProt O00585 24-134) (ligand)
